Patent US20180155451A1 (published 2018)

T1: FcγRIIa R (human FcγRIIa, allotype R, Arg at position 131), extracellular domain with C-terminal His tag (human, UniProt P12318 34-217)
T1 construct: extracellular domain; expressed in FreeStyle293 cells; analyte in Biacore; also called 2aR; FcgRIIa R
T1 sequence (looked up): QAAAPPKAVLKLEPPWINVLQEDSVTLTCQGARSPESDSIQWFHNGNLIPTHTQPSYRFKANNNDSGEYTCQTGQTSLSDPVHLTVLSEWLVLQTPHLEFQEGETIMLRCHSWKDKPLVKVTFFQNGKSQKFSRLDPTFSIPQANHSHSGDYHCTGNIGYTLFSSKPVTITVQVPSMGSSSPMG

B1: GpH7-A5/GpH7-B3 variant A330_05P/GpL16-k0 (antibody, human IgG1, kappa)
heavy 1: not shown
heavy 2: not shown
light: DIVMTQSPLSLPVTPGEPASISCQASESLVHSNRNTYLHWYLQKPGQSPQLLIYKVSNRFSGVPDRFSGSGSGTDFTLKISRVEAEDVGVYYCSQNTHVPPTFGQGTKVEIERTVAAPSVFIFPPSDEQLKSGTASVVCLLNNFYPREAKVQWKVDNALQSGNSQESVTEQDSKDSTYSLSSTLTLSKADYEKHKVYACEVTHQGLSSPVTKSFNRGEC
notes: also called He Ab A330_05P
B2: GpH7-B3 variant T335_10E/GpL16-k0 (antibody, human IgG1, kappa)
heavy: not shown
light: B1 light
notes: homodimerized antibody, mutation in both H chains; also called Ho Ab
B3: GpH7-B3 variant Y296_07I/GpL16-k0 (antibody, human IgG1, kappa)
heavy: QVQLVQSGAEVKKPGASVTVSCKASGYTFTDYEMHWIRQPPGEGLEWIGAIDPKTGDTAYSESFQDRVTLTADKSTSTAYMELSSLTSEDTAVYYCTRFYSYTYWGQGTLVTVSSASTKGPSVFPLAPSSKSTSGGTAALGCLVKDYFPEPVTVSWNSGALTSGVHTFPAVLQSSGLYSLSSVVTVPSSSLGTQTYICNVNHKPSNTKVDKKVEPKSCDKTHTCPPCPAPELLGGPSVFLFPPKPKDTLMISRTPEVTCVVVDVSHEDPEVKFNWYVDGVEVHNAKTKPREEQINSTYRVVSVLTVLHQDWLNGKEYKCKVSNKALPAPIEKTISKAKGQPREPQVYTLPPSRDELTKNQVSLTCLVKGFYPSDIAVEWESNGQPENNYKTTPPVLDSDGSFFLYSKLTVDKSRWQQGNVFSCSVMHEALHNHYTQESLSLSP
light: B1 light
notes: as for B2
B4: GpH7-B3 variant T335_19Q/GpL16-k0 (antibody, human IgG1, kappa)
heavy: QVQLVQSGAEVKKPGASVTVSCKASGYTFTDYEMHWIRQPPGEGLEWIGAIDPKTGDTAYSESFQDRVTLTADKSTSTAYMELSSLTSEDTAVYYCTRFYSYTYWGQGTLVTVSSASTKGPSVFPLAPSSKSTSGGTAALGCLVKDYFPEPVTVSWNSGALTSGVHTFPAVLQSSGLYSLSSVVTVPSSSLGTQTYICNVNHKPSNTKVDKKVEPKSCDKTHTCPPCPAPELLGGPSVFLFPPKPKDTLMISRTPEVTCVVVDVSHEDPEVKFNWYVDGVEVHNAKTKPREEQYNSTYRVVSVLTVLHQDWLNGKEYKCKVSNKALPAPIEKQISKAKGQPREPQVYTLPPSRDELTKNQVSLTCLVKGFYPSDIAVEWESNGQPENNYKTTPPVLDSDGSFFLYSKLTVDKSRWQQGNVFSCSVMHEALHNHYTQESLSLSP
light: B1 light
notes: as for B2
B5: GpH7-A5/GpH7-B3 variant H268_18N/GpL16-k0 (antibody, human IgG1, kappa)
heavy 1: not shown
heavy 2: not shown
light: B1 light
notes: also called He Ab H268_18N
B6: GpH7-A5/GpH7-B3 variant H268_02A/GpL16-k0 (antibody, human IgG1, kappa)
heavy 1: not shown
heavy 2: not shown
light: B1 light
notes: also called He Ab H268_02A
B7: GpH7-A5/GpH7-B3 variant K334_09D/GpL16-k0 (antibody, human IgG1, kappa)
heavy 1: not shown
heavy 2: not shown
light: B1 light
notes: also called He Ab K334_09D
B8: GpH7-A5/GpH7-B3 variant I336_02A/GpL16-k0 (antibody, human IgG1, kappa)
heavy 1: not shown
heavy 2: not shown
light: B1 light
notes: also called He Ab I336_02A
B9: GpH7-B3 variant Y300_18N/GpL16-k0 (antibody, human IgG1, kappa)
heavy: not shown
light: B1 light
notes: as for B2
B10: GpH7-B3 variant Y296_06M/GpL16-k0 (antibody, human IgG1, kappa)
heavy: not shown
light: B1 light
notes: as for B2
B11: GpH7-A5/GpH7-B3 variant E333_02A/GpL16-k0 (antibody, human IgG1, kappa)
heavy 1: not shown
heavy 2: not shown
light: B1 light
notes: also called He Ab E333_02A
B12: GpH7-B3 variant Y296_16H/GpL16-k0 (antibody, human IgG1, kappa)
heavy: not shown
light: B1 light
notes: as for B2
B13: GpH7-A5/GpH7-B3 variant E333_04F/GpL16-k0 (antibody, human IgG1, kappa)
heavy 1: not shown
heavy 2: not shown
light: B1 light
notes: also called He Ab E333_04F
B14: GpH7-A5/GpH7-B3 variant K326_07I/GpL16-k0 (antibody, human IgG1, kappa)
heavy 1: not shown
heavy 2: not shown
light: B1 light
notes: also called He Ab K326_07I
B15: GpH7-B3 variant T335_05P/GpL16-k0 (antibody, human IgG1, kappa)
heavy: not shown
light: B1 light
notes: as for B2
B16: GpH7-A5/GpH7-B3 variant P238_09D/GpL16-k0 (antibody, human IgG1, kappa)
heavy 1: not shown
heavy 2: not shown
light: B1 light
notes: also called He Ab P238_09D
B17: GpH7-B3 variant T335_07I/GpL16-k0 (antibody, human IgG1, kappa)
heavy: not shown
light: B1 light
notes: as for B2
B18: GpH7-A5/GpH7-B3 variant I336_18N/GpL16-k0 (antibody, human IgG1, kappa)
heavy 1: not shown
heavy 2: not shown
light: B1 light
notes: also called He Ab I336_18N
B19: GpH7-A5/GpH7-B3 variant K326_08L/GpL16-k0 (antibody, human IgG1, kappa)
heavy 1: not shown
heavy 2: not shown
light: B1 light
notes: also called He Ab K326_08L
B20: GpH7-B3 variant T335_13S/GpL16-k0 (antibody, human IgG1, kappa)
heavy: not shown
light: B1 light
notes: as for B2
B21: GpH7-A5/GpH7-B3 variant I336_06M/GpL16-k0 (antibody, human IgG1, kappa)
heavy 1: not shown
heavy 2: not shown
light: B1 light
notes: also called He Ab I336_06M
B22: GpH7-B3 variant Y296_13S/GpL16-k0 (antibody, human IgG1, kappa)
heavy: not shown
light: B1 light
notes: as for B2
B23: GpH7-A5/GpH7-B3 variant I336_03V/GpL16-k0 (antibody, human IgG1, kappa)
heavy 1: not shown
heavy 2: not shown
light: B1 light
notes: also called He Ab I336_03V
B24: GpH7-B3 variant Y296_20W/GpL16-k0 (antibody, human IgG1, kappa)
heavy: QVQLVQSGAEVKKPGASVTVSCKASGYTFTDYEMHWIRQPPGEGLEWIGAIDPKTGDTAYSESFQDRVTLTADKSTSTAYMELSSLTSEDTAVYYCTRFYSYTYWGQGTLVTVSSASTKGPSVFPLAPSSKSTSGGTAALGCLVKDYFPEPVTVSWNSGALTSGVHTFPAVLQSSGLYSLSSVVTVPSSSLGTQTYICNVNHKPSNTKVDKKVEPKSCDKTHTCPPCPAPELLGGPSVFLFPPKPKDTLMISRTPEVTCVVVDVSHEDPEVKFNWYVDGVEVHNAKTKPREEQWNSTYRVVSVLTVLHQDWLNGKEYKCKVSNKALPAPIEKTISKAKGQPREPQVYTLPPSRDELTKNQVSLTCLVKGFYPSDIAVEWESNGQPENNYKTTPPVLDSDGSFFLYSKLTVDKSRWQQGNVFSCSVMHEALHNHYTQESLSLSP
light: B1 light
notes: as for B2
B25: GpH7-B3 variant T335_16H/GpL16-k0 (antibody, human IgG1, kappa)
heavy: not shown
light: B1 light
notes: as for B2
B26: GpH7-B3 variant Y296_04F/GpL16-k0 (antibody, human IgG1, kappa)
heavy: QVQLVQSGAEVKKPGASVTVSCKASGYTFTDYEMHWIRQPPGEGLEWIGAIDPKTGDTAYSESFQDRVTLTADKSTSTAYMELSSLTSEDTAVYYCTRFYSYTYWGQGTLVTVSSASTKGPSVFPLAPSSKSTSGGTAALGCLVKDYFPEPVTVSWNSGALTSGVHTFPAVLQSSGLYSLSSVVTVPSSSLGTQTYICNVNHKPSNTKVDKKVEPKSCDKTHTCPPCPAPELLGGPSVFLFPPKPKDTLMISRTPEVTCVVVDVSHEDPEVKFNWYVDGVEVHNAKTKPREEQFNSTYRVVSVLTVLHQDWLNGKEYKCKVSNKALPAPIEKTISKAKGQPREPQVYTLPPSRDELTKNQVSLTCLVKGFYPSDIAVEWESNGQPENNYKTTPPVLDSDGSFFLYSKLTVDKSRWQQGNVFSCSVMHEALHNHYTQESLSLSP
light: B1 light
notes: as for B2
B27: GpH7-A5/GpH7-B3 variant L234_04F/GpL16-k0 (antibody, human IgG1, kappa)
heavy 1: not shown
heavy 2: not shown
light: B1 light
notes: also called He Ab L234_04F
B28: GpH7-A5/GpH7-B3 variant E333_13S/GpL16-k0 (antibody, human IgG1, kappa)
heavy 1: not shown
heavy 2: not shown
light: B1 light
notes: also called He Ab E333_13S
B29: GpH7-A5/GpH7-B3 variant I332_01G/GpL16-k0 (antibody, human IgG1, kappa)
heavy 1: not shown
heavy 2: not shown
light: B1 light
notes: also called He Ab I332_01G
B30: GpH7-B3 variant T335_12R/GpL16-k0 (antibody, human IgG1, kappa)
heavy: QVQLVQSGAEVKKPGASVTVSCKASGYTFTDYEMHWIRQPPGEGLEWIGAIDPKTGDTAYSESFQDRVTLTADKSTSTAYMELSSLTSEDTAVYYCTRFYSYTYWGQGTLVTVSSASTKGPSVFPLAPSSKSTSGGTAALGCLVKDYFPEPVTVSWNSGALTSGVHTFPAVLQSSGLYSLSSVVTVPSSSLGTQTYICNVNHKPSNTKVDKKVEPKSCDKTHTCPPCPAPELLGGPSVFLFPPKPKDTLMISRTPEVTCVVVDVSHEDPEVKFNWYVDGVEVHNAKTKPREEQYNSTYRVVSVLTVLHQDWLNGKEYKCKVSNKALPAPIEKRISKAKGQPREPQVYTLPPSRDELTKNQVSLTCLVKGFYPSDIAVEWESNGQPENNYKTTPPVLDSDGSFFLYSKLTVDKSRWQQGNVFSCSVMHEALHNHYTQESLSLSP
light: B1 light
notes: as for B2
B31: GpH7-A5/GpH7-B3 variant L234_07I/GpL16-k0 (antibody, human IgG1, kappa)
heavy 1: not shown
heavy 2: not shown
light: B1 light
notes: also called He Ab L234_07I
B32: GpH7-B3 variant T335_20W/GpL16-k0 (antibody, human IgG1, kappa)
heavy: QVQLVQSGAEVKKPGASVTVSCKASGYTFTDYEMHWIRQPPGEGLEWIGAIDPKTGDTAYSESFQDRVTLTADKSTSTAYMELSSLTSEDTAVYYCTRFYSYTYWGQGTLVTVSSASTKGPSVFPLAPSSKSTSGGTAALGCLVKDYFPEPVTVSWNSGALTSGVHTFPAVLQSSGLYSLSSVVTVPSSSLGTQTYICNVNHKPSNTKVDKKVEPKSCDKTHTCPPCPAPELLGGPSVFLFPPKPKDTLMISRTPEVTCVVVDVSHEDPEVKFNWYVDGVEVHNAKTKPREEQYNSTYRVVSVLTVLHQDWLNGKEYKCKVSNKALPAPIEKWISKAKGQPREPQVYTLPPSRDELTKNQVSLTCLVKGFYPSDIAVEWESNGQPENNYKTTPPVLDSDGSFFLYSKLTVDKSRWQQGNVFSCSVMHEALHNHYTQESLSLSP
light: B1 light
notes: as for B2
B33: GpH7-B3 variant T335_15Y/GpL16-k0 (antibody, human IgG1, kappa)
heavy: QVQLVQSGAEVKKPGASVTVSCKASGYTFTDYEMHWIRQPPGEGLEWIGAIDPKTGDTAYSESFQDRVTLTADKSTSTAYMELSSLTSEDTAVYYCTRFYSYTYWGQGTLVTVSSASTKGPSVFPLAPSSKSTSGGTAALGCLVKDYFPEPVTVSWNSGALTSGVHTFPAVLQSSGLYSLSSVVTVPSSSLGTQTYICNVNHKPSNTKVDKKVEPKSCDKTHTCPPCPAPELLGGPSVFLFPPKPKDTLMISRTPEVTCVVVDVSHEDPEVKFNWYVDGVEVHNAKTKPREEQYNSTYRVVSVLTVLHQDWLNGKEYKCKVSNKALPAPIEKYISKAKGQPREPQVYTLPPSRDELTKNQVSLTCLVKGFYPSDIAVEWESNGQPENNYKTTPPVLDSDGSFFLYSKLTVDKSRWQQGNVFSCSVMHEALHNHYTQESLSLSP
light: B1 light
notes: as for B2
B34: GpH7-A5/GpH7-B3 variant E333_20W/GpL16-k0 (antibody, human IgG1, kappa)
heavy 1: not shown
heavy 2: not shown
light: B1 light
notes: also called He Ab E333_20W
B35: GpH7-B3 variant T335_18N/GpL16-k0 (antibody, human IgG1, kappa)
heavy: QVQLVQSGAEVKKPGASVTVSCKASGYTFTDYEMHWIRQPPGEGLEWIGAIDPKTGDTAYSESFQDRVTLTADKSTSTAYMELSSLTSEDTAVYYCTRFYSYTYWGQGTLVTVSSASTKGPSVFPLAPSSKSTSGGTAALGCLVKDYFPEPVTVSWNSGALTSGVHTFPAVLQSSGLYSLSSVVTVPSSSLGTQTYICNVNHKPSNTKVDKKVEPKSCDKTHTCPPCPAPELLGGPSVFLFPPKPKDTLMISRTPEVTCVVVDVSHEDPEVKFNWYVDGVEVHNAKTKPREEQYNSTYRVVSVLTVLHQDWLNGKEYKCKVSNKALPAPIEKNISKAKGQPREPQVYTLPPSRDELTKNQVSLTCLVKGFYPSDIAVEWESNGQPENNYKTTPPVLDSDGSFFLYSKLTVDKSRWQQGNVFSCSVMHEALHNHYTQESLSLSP
light: B1 light
notes: as for B2
B36: GpH7-B3 variant Y296_14T/GpL16-k0 (antibody, human IgG1, kappa)
heavy: not shown
light: B1 light
notes: as for B2
B37: GpH7-B3 variant Y296_19Q/GpL16-k0 (antibody, human IgG1, kappa)
heavy: not shown
light: B1 light
notes: as for B2
B38: GpH7-A5/GpH7-B3 variant E333_09D/GpL16-k0 (antibody, human IgG1, kappa)
heavy 1: not shown
heavy 2: not shown
light: B1 light
notes: also called He Ab E333_09D
B39: GpH7-B3 variant V266_06M/GpL16-k0 (antibody, human IgG1, kappa)
heavy: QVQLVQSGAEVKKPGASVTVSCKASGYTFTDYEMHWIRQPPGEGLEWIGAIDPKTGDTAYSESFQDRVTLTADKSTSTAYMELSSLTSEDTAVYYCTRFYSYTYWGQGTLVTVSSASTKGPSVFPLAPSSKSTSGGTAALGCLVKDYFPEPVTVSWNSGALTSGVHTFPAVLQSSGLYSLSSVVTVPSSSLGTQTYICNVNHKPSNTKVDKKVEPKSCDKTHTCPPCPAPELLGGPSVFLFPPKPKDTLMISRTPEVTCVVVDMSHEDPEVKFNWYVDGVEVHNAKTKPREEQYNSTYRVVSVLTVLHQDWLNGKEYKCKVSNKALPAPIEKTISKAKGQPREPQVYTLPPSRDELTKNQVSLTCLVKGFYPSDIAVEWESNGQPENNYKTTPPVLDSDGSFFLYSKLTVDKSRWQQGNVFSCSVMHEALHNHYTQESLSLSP
light: B1 light
notes: as for B2
B40: GpH7-A5/GpH7-B3 variant G236_15Y/GpL16-k0 (antibody, human IgG1, kappa)
heavy 1: not shown
heavy 2: not shown
light: B1 light
notes: also called He Ab G236_15Y
B41: GpH7-A5/GpH7-B3 variant E333_03V/GpL16-k0 (antibody, human IgG1, kappa)
heavy 1: not shown
heavy 2: not shown
light: B1 light
notes: also called He Ab E333_03V
B42: GpH7-B3 variant Y296_10E/GpL16-k0 (antibody, human IgG1, kappa)
heavy: not shown
light: B1 light
notes: as for B2
B43: GpH7-A5/GpH7-B3 variant A330_07I/GpL16-k0 (antibody, human IgG1, kappa)
heavy 1: not shown
heavy 2: not shown
light: B1 light
notes: also called He Ab A330_07I
B44: GpH7-A5/GpH7-B3 variant K334_01G/GpL16-k0 (antibody, human IgG1, kappa)
heavy 1: not shown
heavy 2: not shown
light: B1 light
notes: also called He Ab K334_01G
B45: GpH7-A5/GpH7-B3 variant L234_20W/GpL16-k0 (antibody, human IgG1, kappa)
heavy 1: not shown
heavy 2: not shown
light: B1 light
notes: also called He Ab L234_20W
B46: GpH7-A5/GpH7-B3 variant I336_08L/GpL16-k0 (antibody, human IgG1, kappa)
heavy 1: not shown
heavy 2: not shown
light: B1 light
notes: also called He Ab I336_08L
B47: GpH7-B3 variant Y296_09D/GpL16-k0 (antibody, human IgG1, kappa)
heavy: not shown
light: B1 light
notes: as for B2
B48: GpH7-A5/GpH7-B3 variant I332_06M/GpL16-k0 (antibody, human IgG1, kappa)
heavy 1: not shown
heavy 2: not shown
light: B1 light
notes: also called He Ab I332_06M
B49: GpH7-B3 variant T335_02A/GpL16-k0 (antibody, human IgG1, kappa)
heavy: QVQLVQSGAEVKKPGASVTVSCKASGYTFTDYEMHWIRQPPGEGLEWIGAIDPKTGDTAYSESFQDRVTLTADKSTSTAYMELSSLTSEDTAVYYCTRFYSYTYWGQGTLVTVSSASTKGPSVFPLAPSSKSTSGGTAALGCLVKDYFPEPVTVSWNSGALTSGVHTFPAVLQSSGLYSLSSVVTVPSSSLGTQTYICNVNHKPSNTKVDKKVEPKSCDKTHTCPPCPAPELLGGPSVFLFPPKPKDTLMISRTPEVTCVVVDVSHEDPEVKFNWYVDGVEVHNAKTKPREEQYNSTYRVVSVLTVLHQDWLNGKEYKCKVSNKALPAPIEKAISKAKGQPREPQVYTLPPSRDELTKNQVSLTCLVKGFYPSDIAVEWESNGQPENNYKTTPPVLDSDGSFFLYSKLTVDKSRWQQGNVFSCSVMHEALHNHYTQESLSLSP
light: B1 light
notes: as for B2
B50: GpH7-B3 variant Y296_18N/GpL16-k0 (antibody, human IgG1, kappa)
heavy: not shown
light: B1 light
notes: as for B2

Tests used:
[1] = target: T2, FcγRIIIa extracellular domain with C-terminal His tag (human, UniProt P08637 17-208); experiment: SPR relative binding; GpH7-A5/GpH7-B3/GpL16-k0 = 100
T2 construct: extracellular domain; also called FcgRIIIa; 3a; not shown: His tag at the C terminus
Protocol: (§1) Analysis of interaction between objective antibody and the FcγR was carried out using Biacore T100 (GE Healthcare). HBS-EP+ (GE Healthcare) was used as the running buffer, and the measurement temperature was set to 25° C. Chips produced by immobilizing the antigen peptide by the amine coupling method to a Series S Sencor Chip CM5 (GE Healthcare), or alternatively, chips produced by allowing preliminarily biotinylated antigen peptides to interact with and immobilize onto a Series S Sensor Chip SA (certified) (GE Healthcare) were used. Antibodies of interest were captured onto an antigen peptide-immobilized chip, and allowed to interact to each FcγR diluted with running buffer. To regenerate and repeatedly use the chip, the antibodies captured on the chip were washed off by reacting 10 mM glycine-HCl, pH 1.5.
(§2) The FcγR-binding activity of each antibody was assessed primarily using as an indicator the FcγR-binding activity and dissociation constant for FcγR.

[2] = target: T1, FcγRIIa R (human FcγRIIa, allotype R, …); experiment: SPR (Biacore), relative binding vs GpH7-B3/GpL16-k0
Protocol: as §1, §2

T2 sequence (P08637 17-208): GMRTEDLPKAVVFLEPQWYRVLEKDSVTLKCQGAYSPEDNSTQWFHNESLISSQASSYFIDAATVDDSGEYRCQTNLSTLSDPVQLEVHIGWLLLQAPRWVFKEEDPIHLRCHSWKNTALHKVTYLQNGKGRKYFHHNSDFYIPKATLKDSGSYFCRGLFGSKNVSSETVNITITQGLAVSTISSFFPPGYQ

Binder	He/Con_3a [1]	Ho/Con_2aR [2]
B1	155 % of control	
B2		109 relative, control = 100
B3		83.1 relative, control = 100
B4		102 relative, control = 100
B5	104 % of control	
B6	122 % of control	
B7	160 % of control	
B8	111 % of control	
B9		87.6 relative, control = 100
B10		84 relative, control = 100
B11	105 % of control	
B12		89.5 relative, control = 100
B13	101 % of control	
B14	139 % of control	
B15		104 relative, control = 100
B16	106 % of control	
B17		107 relative, control = 100
B18	104 % of control	
B19	114 % of control	
B20		102 relative, control = 100
B21	109 % of control	
B22		88.1 relative, control = 100
B23	112 % of control	
B24		107 relative, control = 100
B25		102 relative, control = 100

Binder	He/Con_3a [1]	Ho/Con_2aR [2]
B26		106 relative, control = 100
B27	118 % of control	
B28	103 % of control	
B29	111 % of control	
B30		94 relative, control = 100
B31	103 % of control	
B32		101 relative, control = 100
B33		107 relative, control = 100
B34	101 % of control	
B35		100 relative, control = 100
B36		90.3 relative, control = 100
B37		88.9 relative, control = 100
B38	112 % of control	
B39		146 relative, control = 100
B40	121 % of control	
B41	103 % of control	
B42		90.2 relative, control = 100
B43	103 % of control	
B44	121 % of control	
B45	107 % of control	
B46	106 % of control	
B47		94.5 relative, control = 100
B48	101 % of control	
B49		102 relative, control = 100
B50		93.7 relative, control = 100
